The values below come from publication PMC12548415 (Journal of Virology, 2025).

This assay concerns the target T1, raccoon dog transferrin receptor ectodomain (recombinant RDTfR, from residue 121, C-terminal 6x His) (raccoon dog).
T1 construct: transferrin receptor type 1 of the raccoon dog, ectodomain starting at amino acid residue 121 of XM_055316305; Cloned with the N-terminal signal peptide GP67; also called recombinant RDTfR protein; purified RDTfR; source: Sf9 cells (pFastBacI-RDTfR), purified (Ni-NTA, dialysed in PBS); not shown: His6, C-terminal, kept
Nature of the assay: BLI; virus immobilised on APS probe (Gator Prime), PBS as running buffer; three concentrations (serial dilutions) of RDTfR in PBST (PBS, 0.05% Tween-20) applied; global fit, 1:1 binding model. Conditions: both partners purified.

B1: rRDPV-10 virus (rescued from the infectious cDNA clone pRDPV-10 of raccoon dog parvovirus strain RDPV/FLD/2010), capsid of VP2 (complex)
chain: MSDGAVQPDGGQPAVRNERATGSGNGSGGGGGGGSGGVGISTGTFNNQTEFKFLENGWVEITANSSRLVHLNMPESENYRRVVVNNMDKTAVNGNMALDDIHAQIVTPWSLVDANAWGVWFNPGDWQLIVNTMSELHLVSFEQEIFNVVLKTVSESATQPPTKVYNNDLTASLMVALDSNNTMPFTPAAMRSETLGFYPWKPTIPTPWRYYFQWDRTLIPSHTGTSGTPTNIYHGTDPDDVQFYTIENSVPVHLLRTGDEFATGTFFFDCKPCRLTHTWQTNRALGLPPFLNSLPQSEGATNFGDIGVQQDKRRGVTQMGNTNYITEATIMRPAEVGYSAPYYSFEASTQGPFKTPIAAGRGGAQTDENQAADGNPRYAFGRQHGQKTTTTGETPERFTYIAHQDTGRYPEGDWIQNINFNLPVTNDNVLLPTDPIGGKTGINYTNIFNTYGPLTALNNVPPVYPNGQIWDKEFDTDLKPRLHVNAPFVCQNNCPGQLFVKVAPNLTNEYDPDASANMSRIVTYSDFWWKGKLVFKAKLRASHTWNPIQQMSINVDNQFNYVPSNIGGMKIVYEKSQLAPRKLY
With B1, the Kd amounted to 137 nM, the off-rate constant (koff) was determined as 0.0071 s⁻¹ and the kon came to 51800 M⁻¹ s⁻¹.
